How the values were obtained:
human Dll1 [1] = molecular target: T1, human Dll1 (human, UniProt O00548 18-723); assay: Flow cytometry on HEK293F cells transiently expressing HuDll1; 21H3RK, goat anti-human IgG-FITC
T1 construct: whole, on cells
T1 sequence (looked up): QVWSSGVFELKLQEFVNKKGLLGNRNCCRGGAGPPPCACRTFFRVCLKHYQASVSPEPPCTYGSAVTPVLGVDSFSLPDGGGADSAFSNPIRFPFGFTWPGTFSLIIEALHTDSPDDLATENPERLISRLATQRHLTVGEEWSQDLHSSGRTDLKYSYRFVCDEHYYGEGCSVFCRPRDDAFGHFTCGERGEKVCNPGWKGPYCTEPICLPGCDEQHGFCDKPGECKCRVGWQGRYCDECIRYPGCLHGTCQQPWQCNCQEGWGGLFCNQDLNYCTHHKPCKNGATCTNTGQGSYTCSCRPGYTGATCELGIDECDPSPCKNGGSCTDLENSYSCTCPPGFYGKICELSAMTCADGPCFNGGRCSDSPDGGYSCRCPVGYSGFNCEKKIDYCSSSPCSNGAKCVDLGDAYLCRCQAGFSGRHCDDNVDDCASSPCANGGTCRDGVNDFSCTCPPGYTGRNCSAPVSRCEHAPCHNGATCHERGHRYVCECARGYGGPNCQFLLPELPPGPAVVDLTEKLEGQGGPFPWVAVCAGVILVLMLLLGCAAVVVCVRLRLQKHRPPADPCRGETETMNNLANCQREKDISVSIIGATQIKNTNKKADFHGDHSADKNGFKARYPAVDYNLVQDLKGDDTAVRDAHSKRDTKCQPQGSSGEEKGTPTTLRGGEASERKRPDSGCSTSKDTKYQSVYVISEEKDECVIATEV
Description: This specificity is employed to deduce the binding epitope of Mab 21H3RK to human DLL4. Chimeric variants were engineered with portions of the extracellular domain of DLL4 replaced with the corresponding segments of DLL1. […] The resulting variants were cloned into a mammalian expression vector encoding a human cytomegalovirus major immediate early (hCMVie) enhancer, promoter and 5′-untranslated region for transient mammalian expression. The chimeric variants were transiently expressed in HEK293F cells as membrane-bound proteins for flow cytometric characterization with Mab 21H3RK. 48 h post-transfection, HEK293F transfectants were incubated with 1 μg/ml of Mab 21H3RK for 1 h on ice in PBS, washed, then incubated with goat anti-human IgG-FITC (Jackson ImmunoResearch Laboratories, PA) and analyzed with a LSRII flow cytometer (BD Biosciences, CA). The expression levels of all chimeric variants were is monitored by incubating with a mixture of both goat anti-mouse DLL4 (which also recognizes human DLL4) and goat anti-human DLL1 polyclonal antibodies (both from R&D Systems., MN), then detected with porcine anti-goat IgG-PE (Invitrogen, CA).

human Jagged1 [2] = molecular target: T2, human Jagged1 (human, UniProt P78504 34-1218); assay: FACS, up to 300 µg/ml, HEK-293 cells stably overexpressing human Jagged1
T2 construct: whole, on cells
T2 sequence (P78504 34-1218): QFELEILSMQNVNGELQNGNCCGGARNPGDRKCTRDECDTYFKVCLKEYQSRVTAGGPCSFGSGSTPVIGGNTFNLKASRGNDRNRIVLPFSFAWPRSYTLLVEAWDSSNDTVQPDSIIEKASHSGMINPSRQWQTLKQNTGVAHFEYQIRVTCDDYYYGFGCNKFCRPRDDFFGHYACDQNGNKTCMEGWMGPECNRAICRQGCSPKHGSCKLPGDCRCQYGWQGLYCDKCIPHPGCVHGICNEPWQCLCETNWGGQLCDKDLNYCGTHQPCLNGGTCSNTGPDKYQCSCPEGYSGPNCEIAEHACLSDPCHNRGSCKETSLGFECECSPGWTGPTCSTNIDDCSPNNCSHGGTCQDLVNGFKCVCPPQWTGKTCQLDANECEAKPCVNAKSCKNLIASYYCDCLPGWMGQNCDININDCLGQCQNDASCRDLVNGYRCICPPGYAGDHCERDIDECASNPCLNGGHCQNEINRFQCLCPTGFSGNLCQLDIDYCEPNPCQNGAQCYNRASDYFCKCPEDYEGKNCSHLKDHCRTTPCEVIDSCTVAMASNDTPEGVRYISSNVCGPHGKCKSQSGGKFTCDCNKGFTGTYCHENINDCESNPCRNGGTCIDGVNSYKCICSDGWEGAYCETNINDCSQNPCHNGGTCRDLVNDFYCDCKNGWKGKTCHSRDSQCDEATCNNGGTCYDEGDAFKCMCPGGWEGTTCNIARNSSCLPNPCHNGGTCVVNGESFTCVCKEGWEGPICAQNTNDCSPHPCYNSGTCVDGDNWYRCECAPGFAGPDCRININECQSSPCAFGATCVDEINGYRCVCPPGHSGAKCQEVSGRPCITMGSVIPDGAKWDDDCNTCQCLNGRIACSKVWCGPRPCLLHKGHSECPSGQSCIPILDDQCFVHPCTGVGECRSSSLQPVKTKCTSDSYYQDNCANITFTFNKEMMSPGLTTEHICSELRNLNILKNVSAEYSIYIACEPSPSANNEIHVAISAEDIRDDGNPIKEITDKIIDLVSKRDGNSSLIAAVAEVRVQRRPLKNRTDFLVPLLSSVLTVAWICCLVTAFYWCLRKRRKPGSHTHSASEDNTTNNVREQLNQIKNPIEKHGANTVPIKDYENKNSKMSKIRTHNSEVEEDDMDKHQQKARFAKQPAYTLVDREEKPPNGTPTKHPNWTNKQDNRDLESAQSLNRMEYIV

human Dll1 [3] = molecular target: T1, human Dll1; assay: FACS, up to 300 µg/ml, HEK-293 cells stably overexpressing human Dll1
full length human DLL4 [4] = molecular target: T3, full length human DLL4 (human, UniProt Q9NR61 27-685); assay: FACS competition, unlabeled antibody vs competitor Alexa-647 4B4, HEK293 cells with human DLL4
T3 construct: whole, on cells; also called native DLL4 expressed in HEK293 cells
T3 sequence (Q9NR61 27-685): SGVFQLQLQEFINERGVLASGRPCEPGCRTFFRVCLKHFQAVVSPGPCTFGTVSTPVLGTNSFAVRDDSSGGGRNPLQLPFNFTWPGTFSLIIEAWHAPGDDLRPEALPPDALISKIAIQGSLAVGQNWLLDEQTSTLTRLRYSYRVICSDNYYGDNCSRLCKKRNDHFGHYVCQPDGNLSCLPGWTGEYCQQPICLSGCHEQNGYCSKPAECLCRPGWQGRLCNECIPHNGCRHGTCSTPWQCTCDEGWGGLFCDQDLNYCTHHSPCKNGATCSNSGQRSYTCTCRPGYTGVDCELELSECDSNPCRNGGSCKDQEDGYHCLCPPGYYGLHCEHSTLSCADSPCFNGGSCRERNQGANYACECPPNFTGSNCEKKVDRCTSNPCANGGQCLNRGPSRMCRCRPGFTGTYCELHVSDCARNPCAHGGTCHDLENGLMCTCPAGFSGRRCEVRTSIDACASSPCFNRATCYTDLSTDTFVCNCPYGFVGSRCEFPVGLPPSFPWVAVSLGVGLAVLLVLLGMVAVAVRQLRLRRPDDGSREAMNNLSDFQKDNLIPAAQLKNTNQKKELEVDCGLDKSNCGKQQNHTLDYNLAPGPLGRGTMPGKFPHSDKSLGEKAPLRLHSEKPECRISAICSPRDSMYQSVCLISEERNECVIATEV
Experimental: (§1) The ability of the purified DLL4 antibodies to inhibit the binding of other DLL4 antibodies to human DLL4 was assessed using a FACS assay. Briefly, antibodies were directly labelled with Alexa-647 using a commercially available labelling kit (e.g. Molecular Probes catalog #A30009, A-20186) as per the manufacturer's instructions. To determine the level of cross-competition, unlabelled anti-DLL4 antibodies (final concentration: 10-0.01 μg/ml) diluted in PBS containing 2% FCS were added to DLL4-expressing HEK 293 cells (as described in example 6; 50000 cells/well diluted in PBS containing 2% FCS) and incubated for 1 h at 4° C. Subsequently, Alexa-647 labeled anti-DLL4 antibodies were added at a final concentration of 0.1 μg/ml and plates were incubated for a further 1 h at 4° C. prior to washing and reading on a FACSCalibur instrument. Data that summarizes the ability of unlabeled antibodies (10, 1, 0.1 μg/ml) to compete with labeled 21H3RK for binding to human DLL4 is included in FIG. 3. Additional data that summarizes the ability of unlabeled antibodies to compete with labeled 21H3RK and 4B4 for binding to human DLL4 is included in Table 22.

full length human DLL4 [5] = molecular target: T3, full length human DLL4; assay: FACS competition, unlabeled antibody vs competitor Alexa-647 21H3RK, HEK293 cells with human DLL4
Experimental: as §1

full length human DLL4 [6] = molecular target: T3, full length human DLL4; assay: FACS competition vs human Notch1/Fc, HEK293 cells with human DLL4
Experimental: (§2) Further experiments were performed on selected antibodies using HEK293 cells that were stably transfected with either human, mouse or cynomolgus monkey DLL4 using retroviral constructs. In these experiments, anti-DLL4 antibodies (final concentration: 10-0.01 μg/ml) diluted in PBS containing 2% FCS were added to DLL4-expressing HEK 293 cells (50000 cells/well diluted in PBS containing 2% FCS) and incubated for 1 h at 4° C. Subsequently, Alexa-647 labeled human, rat or APC labeled mouse Notch1/Fc (e.g. R&D Systems, catalog #3647-TK-050, 1057-TK-050, 5267-TK-050, respectively) was added at a final concentration of 0.01-0.5 μg/ml and plates were incubated for a further 2 h at 4° C. prior to washing and reading on a FACSCalibur instrument.

full length mouse DLL4 = molecular target: T4, full length mouse DLL4 (mouse, UniProt Q9JI71 27-686); assay: FACS competition vs mouse Notch1/Fc, HEK293 cells with mouse DLL4
T4 construct: whole, on cells
T4 sequence (Q9JI71 27-686): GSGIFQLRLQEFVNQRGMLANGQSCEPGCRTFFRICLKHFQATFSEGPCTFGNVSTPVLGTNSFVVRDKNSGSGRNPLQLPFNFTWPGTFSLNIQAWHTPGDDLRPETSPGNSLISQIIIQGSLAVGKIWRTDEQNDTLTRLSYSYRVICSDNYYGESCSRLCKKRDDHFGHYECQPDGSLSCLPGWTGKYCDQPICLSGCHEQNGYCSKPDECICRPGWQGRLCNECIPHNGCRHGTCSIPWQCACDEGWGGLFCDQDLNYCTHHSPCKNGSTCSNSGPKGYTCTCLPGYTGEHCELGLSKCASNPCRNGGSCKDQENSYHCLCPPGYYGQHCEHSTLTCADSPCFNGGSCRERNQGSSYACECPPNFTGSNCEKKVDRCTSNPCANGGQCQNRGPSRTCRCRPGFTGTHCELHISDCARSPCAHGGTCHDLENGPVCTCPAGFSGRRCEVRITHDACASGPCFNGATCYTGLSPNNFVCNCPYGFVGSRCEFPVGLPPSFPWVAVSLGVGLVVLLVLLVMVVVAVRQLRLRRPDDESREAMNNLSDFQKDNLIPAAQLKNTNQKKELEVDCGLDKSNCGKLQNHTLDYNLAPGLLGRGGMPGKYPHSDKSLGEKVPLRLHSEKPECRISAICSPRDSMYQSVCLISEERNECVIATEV
Experimental: as §2

full length human DLL4 [7] = molecular target: T3, full length human DLL4; assay: FACS titration, HEK293 cells with human DLL4
Experimental: The binding affinities of the purified antibodies for DLL4 was estimated using is both FACS and BIAcore techniques. […] The cells were then washed and incubated with goat anti-human IgG-Fc-Cy5+5 μg/mL 7-Amino-Actinomycin (7AAD) for 30 minutes at 4° C.
In this equation, F=mean fluorescence, LT=total molecular mAb concentration, P′=proportionality constant that relates arbitrary fluorescence units to bound mAb, M=cellular concentration in molarity, n=number of receptors per cell, B=background signal, and KD=equilibrium dissociation constant. For each mAb titration curve an estimate for KD is obtained as P′, n, B, and KD are allowed to float freely in the nonlinear analysis. Table 20 summarizes the affinity estimates for the anti-DLL4 antibodies for human and cynomolgus monkey DLL4 derived using the methodology described above

[8] = molecular target: T5, human soluble DLL4 (R&D systems catalog #1056-D4-050) (human, UniProt Q9NR61 27-524); assay: Biacore T100, antibody immobilised, soluble human DLL4 as analyte
T5 construct: Catalog number as printed; perhaps the same product as #1506-D4; also called antigen DLL4
T5 sequence (Q9NR61 27-524 limits assumed): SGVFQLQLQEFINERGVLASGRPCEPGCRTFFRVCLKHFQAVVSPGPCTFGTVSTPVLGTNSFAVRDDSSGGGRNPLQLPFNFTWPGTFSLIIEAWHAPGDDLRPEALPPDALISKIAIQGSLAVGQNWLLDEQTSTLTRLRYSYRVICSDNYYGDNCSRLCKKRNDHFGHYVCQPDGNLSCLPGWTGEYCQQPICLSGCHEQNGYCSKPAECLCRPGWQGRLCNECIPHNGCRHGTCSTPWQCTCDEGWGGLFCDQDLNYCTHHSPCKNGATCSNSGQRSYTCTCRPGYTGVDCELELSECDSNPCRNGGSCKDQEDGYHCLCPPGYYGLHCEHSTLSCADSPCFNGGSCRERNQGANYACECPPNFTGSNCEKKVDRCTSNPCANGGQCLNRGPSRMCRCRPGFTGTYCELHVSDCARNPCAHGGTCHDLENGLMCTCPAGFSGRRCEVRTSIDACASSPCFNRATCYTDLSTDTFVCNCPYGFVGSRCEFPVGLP
Experimental: For Biacore analysis, each purified anti-DLL4 antibody was immobilized on a CM5 sensor chip within a T100 using standard amine coupling. Immobilization levels were kept below 200 RU. The concentration of DLL4 was determined by UV-VIS spectroscopy using a molar absorptivity at 280 nm of 110, 440 M⁻¹cm⁻¹, which was calculated from the sequence of the protein using a method developed by Pace et al. (G. R. Grimsley and C. N. Pace (2003) in Current Protocols in Protein Science (John Wiley & Sons, Inc.), 3.1.1-3.1.9). The antigen DLL4 (R&D systems; human catalog #1056-D4-050 or mouse, catalog #1389-D4-050) was diluted to a starting concentration of 32-64 nM and tested in a 3-fold dilution series in triplicate. The running buffer contained HBS-P with 0.1 mg/ml BSA and binding responses were collected at 23° C. Bound complexes were regenerated with a 15 s pulse of 10 mM of sodium hydroxide. The response data were globally fitted with a simple 1:1 interaction model and Table 20 summarizes the kₐ, kd and KD estimates obtained for the anti-DLL4 antibodies when binding to human soluble DLL4 was assessed.

human Jagged1 [9] = molecular target: T2, human Jagged1; assay: FACS, 1 µg/ml, 293T cells with human Jagged1 vs mock
human Jagged1 [10] = molecular target: T2, human Jagged1; assay: FACS, 5 µg/ml, 293T cells with human Jagged1 vs mock
Procedure, shortened: (§3)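 Flow cytometry; 1 h antibody staining at 4 °C in PBS/2% FCS. Value = geometric mean fluorescence shift over mock-transfected cells.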

human Jagged1 [11] = molecular target: T2, human Jagged1; assay: FACS, 5 µg/ml, 293T cells with human Jagged1
Procedure, shortened: as §3

human Jagged1 [12] = molecular target: T2, human Jagged1; assay: FACS, 0.2 µg/ml, 293T cells with human Jagged1 vs mock

B1: 21H3RK (antibody, V domains shown)
VH: QVQLVQSGAEVKKPGASVKVSCKASGYTFTNYGITWVRQAPGQGPEWMGWISAYNGNTNYAQKLQDRVTVTTDTSTSTAYMELRSLRSDDTAVYYCARDRVPRIPVTTEAFDIWGQGTMVTVSS
VL: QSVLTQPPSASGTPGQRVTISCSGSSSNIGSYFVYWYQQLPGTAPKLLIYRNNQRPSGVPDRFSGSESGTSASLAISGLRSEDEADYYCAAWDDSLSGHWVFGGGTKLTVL
notes: also called Mab 21H3RK; Monoclonal 21H3RK
Human Dll1 [1]
  binding result: no binding (tested: 1 ug/ml (single concentration))
Human Jagged1 [2]
  fold over background: < 2.5 fold
Human Dll1 [3]
  fold over background: < 2.5 fold
Full length human DLL4 [4]
  IC50: 0.223 µg/mL
Full length human DLL4 [5]
  IC50: 0.214 µg/mL

B2: 21H3RK IgG1 (antibody, V domains shown)
VH: B1 VH
VL: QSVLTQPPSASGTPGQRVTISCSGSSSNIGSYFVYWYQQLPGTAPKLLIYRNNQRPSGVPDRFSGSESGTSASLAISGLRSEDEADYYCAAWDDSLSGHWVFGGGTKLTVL
notes: IgG1; VL is 21H3 VLOP1 (R107K)
Full length human DLL4 [6]
  IC50: 0.58 nM
Full length mouse DLL4
  IC50: 42 nM
Full length human DLL4 [7]
  Kd: 0.155 nM
[8]
  Kd: 0.493 nM
  koff: 0.000166 s⁻¹
  kon: 337000 M⁻¹ s⁻¹

B3: human Notch3/Fc chimera (Fc fusion, UniProt Q9UM47 40-467, looked up)
chain: APPCLDGSPCANGGRCTQLPSREAACLCPPGWVGERCQLEDPCHSGPCAGRGVCQSSVVAGTARFSCRCPRGFRGPDCSLPDPCLSSPCAHGARCSVGPDGRFLCSCPPGYQGRSCRSDVDECRVGEPCRHGGTCLNTPGSFRCQCPAGYTGPLCENPAVPCAPSPCRNGGTCRQSGDLTYDCACLPGFEGQNCEVNVDDCPGHRCLNGGTCVDGVNTYNCQCPPEWTGQFCTEDVDECQLQPNACHNGGTCFNTLGGHSCVCVNGWTGESCSQNIDDCATAVCFHGATCHDRVASFYCACPMGKTGLLCHLDDACVSNPCHEDAICDTNPVNGRAICTCPPGFTGGACDQDVDECSIGANPCEHLGRCVNTQGSFLCQCGRGYTGPRCETDVNECLSGPCRNQATCLDRIGQFTCICMAGFTGTYCE
notes: Positive control for Jagged1; also called N3 Fc; Fc part of the bought chimera not given, not described
Human Jagged1 [9]
  Jagged1/mock ratio: 2.88
Human Jagged1 [10]
  Jagged1/mock ratio: 3.87
Human Jagged1 [11]
  Jagged1/293T X Geo mean: 51
Human Jagged1 [12]
  Jagged1/mock ratio: 1.96
